Experimental data taken from patent US20260098092A1 (CHULALONGKORN UNIVERSITY, published 2026).

Target: T1, recombinant human PD-1 His-tag protein (R&D Systems) (human, UniProt Q15116 25-167)
T1 construct: Bought reagent; Used for the ELISA (coated) and for SPR (analyte); also called PD-1 protein; human PD-1 protein; not shown: His-tag
Experiment: binding kinetics (method not described at the table; presumably SPR as in Example 8)

T1 sequence (Q15116 25-167 limits assumed): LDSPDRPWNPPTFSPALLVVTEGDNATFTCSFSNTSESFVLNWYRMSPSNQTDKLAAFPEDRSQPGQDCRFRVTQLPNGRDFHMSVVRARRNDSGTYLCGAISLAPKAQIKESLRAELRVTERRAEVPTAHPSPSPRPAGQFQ

Kd	koff	kon	Binder
0.0206 nM	7.57e-05 s⁻¹	3.67e+06 M⁻¹ s⁻¹	Modified Seq11 (modified zCUSB0136.8 antibody) (antibody, V domains shown) VH: QVQLQESGPGLVKPSETLSLTCTVSGFSLTTYDIIWIRQSPGKGLEWLGVIWTGGDTTYNSAFMSRLTISKDTSKNQISLKMSSLTAADTAVYYCARDWAYWGQGTLVTVSS VL: DIVLTQSPDSLAVSLGERATISCRASESVDNYGNSFIQWYQQKPGQPPKLLIYFASYLQSGVPDRFSGSGSGTDFTLTISSVQAEDVATYYCHQNNEDPFTFGGGTKLEIK
0.0142 nM	5.48e-05 s⁻¹	3.84e+06 M⁻¹ s⁻¹	Modified Seq7 (modified zCUSB0136.8 antibody) (antibody, V domains shown) VH: QVQLQESGPGLVKPSETLSLTCTVSGFSLTTYDIIWIRQSPGKGLEWLGVIWTGGDTTYNSAFMSRLTISKDTSKNQISLKMSSLTAADTAVYYCARDWMYWGQGTLVTVSS VL: DIVLTQSPDSLAVSLGERATISCRASESVDNYGNSFIQWYQQKPGQPPKLLIYFASYLQSGVPDRFSGSGSGTDFTLTISSVQAEDVATYYCHQNNEDPFTFGGGTKLEIK
0.0108 nM	4.36e-05 s⁻¹	4.06e+06 M⁻¹ s⁻¹	Modified Seq5 (modified zCUSB0136.8 antibody) (antibody, V domains shown) VH: QVQLQESGPGLVKPSETLSLTCTVSGFSLTVYDIIWIRQSPGKGLEWLGVIWTGGDTTYNSAFMSRLTISKDTSKNQISLKMSSLTAADTAVYYCARDWMYWGQGTLVTVSS VL: DIVLTQSPDSLAVSLGERATISCRASESVDNYGNSFIQWYQQKPGQPPKLLIYFASYLQSGVPDRFSGSGSGTDFTLTISSVQAEDVATYYCHQNNEDPFTFGGGTKLEIK
0.00944 nM	3.92e-05 s⁻¹	4.15e+06 M⁻¹ s⁻¹	Modified Seq4 (modified zCUSB0136.8 antibody) (antibody, V domains shown) VH: QVQLQESGPGLVKPSETLSLTCTVSGFSLTVYDIIWIRQSPGKGLEWLGVIWTGGDTTYNSAFMSRLTISKDTSKNQISLKMSSLTAADTAVYYCARDWAYWGQGTLVTVSS VL: DIVLTQSPDSLAVSLGERATISCRASESVDNYGNSFIQWYQQKPGQPPKLLIYFASYLQSGVPDRFSGSGSGTDFTLTISSVQAEDVATYYCHQNNEDPFTFGGGTKLEIK
0.00931 nM	5.28e-05 s⁻¹	5.67e+06 M⁻¹ s⁻¹	Modified Seq3 (modified zCUSB0136.8 antibody) (antibody, V domains shown) VH: QVQLQESGPGLVKPSETLSLTCTVSGFSLTTYDIIWIRQSPGKGLEWLGVIWTGGDTTYNSAFMSRLTISKDTSKNQISLKMSSLTAADTAVYYCARDWIYWGQGTLVTVSS VL: DIVLTQSPDSLAVSLGERATISCRASESVDNWGNSFIQWYQQKPGQPPKLLIYFASYLQSGVPDRFSGSGSGTDFTLTISSVQAEDVATYYCHQNNEDPFTFGGGTKLEIK
0.00571 nM	2.53e-05 s⁻¹	4.44e+06 M⁻¹ s⁻¹	Modified Seq2 (modified zCUSB0136.8 antibody) (antibody, V domains shown) VH: QVQLQESGPGLVKPSETLSLTCTVSGFSLTVYDIIWIRQSPGKGLEWLGVIWTGGDTTYNSAFMSRLTISKDTSKNQISLKMSSLTAADTAVYYCARDWIYWGQGTLVTVSS VL: DIVLTQSPDSLAVSLGERATISCRASESVDNYGNSFIQWYQQKPGQPPKLLIYFASYLQSGVPDRFSGSGSGTDFTLTISSVQAEDVATYYCHQNNEDPFTFGGGTKLEIK
0.00539 nM	2.81e-05 s⁻¹	5.21e+06 M⁻¹ s⁻¹	Modified Seq1 (modified zCUSB0136.8 antibody) (antibody, V domains shown) VH: QVQLQESGPGLVKPSETLSLTCTVSGFSLTTYDIIWIRQSPGKGLEWLGVIWTGGDTWYNSAFMSRLTISKDTSKNQISLKMSSLTAADTAVYYCARDWAYWGQGTLVTVSS VL: DIVLTQSPDSLAVSLGERATISCRASESVDNWGNSFIQWYQQKPGQPPKLLIYFASYLQSGVPDRFSGSGSGTDFTLTISSVQAEDVATYYCHQNNEDPFTFGGGTKLEIK
0.0136 nM	5.45e-05 s⁻¹	4e+06 M⁻¹ s⁻¹	Modified Seq6 (modified zCUSB0136.8 antibody) (antibody, V domains shown) VH: QVQLQESGPGLVKPSETLSLTCTVSGFSLTTYDIIWIRQSPGKGLEWLGVIWTGGDTTYNSAFMSRLTISKDTSKNQISLKMSSLTAADTAVYYCARDWIYWGQGTLVTVSS VL: DIVLTQSPDSLAVSLGERATISCRASESVDNYGNSFIQWYQQKPGQPPKLLIYFASYLQSGVPDRFSGSGSGTDFTLTISSVQAEDVATYYCHQNNEDPFTFGGGTKLEIK
